T1: G9a and GLP (Homo sapiens, UniProt Q96KQ7+Q9H9B1)
T1 sequence (Q96KQ7 2-1210 limits assumed): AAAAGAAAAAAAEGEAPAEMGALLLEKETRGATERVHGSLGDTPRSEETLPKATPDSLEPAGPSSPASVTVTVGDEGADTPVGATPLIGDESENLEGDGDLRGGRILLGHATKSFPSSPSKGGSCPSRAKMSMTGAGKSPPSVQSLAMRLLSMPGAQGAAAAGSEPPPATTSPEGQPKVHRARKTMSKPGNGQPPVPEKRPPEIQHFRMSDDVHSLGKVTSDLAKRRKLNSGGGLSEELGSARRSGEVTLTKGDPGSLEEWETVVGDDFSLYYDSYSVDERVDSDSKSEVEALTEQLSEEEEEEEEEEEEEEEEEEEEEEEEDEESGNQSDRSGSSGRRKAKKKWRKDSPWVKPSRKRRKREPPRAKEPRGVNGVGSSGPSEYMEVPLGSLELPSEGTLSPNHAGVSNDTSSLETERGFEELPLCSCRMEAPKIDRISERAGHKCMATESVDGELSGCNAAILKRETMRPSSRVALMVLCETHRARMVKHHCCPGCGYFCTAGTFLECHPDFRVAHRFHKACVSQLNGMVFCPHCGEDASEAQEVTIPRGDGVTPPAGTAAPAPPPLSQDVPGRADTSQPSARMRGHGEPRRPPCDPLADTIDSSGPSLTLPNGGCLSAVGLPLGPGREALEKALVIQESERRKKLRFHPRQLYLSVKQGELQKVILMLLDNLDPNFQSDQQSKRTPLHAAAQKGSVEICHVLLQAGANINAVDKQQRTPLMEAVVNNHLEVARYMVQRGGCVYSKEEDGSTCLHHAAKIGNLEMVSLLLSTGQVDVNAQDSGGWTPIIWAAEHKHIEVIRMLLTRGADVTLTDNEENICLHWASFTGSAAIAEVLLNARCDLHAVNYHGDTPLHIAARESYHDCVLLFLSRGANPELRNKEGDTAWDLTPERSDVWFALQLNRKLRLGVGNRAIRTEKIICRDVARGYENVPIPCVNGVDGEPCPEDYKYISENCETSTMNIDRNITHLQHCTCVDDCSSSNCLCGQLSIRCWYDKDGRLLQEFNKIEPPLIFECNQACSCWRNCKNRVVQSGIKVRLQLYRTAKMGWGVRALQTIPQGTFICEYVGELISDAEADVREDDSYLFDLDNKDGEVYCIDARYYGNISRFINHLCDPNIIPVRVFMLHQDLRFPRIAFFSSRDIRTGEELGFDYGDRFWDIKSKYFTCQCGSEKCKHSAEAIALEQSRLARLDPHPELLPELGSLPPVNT
T1 sequence (Q9H9B1 2-1298 limits assumed): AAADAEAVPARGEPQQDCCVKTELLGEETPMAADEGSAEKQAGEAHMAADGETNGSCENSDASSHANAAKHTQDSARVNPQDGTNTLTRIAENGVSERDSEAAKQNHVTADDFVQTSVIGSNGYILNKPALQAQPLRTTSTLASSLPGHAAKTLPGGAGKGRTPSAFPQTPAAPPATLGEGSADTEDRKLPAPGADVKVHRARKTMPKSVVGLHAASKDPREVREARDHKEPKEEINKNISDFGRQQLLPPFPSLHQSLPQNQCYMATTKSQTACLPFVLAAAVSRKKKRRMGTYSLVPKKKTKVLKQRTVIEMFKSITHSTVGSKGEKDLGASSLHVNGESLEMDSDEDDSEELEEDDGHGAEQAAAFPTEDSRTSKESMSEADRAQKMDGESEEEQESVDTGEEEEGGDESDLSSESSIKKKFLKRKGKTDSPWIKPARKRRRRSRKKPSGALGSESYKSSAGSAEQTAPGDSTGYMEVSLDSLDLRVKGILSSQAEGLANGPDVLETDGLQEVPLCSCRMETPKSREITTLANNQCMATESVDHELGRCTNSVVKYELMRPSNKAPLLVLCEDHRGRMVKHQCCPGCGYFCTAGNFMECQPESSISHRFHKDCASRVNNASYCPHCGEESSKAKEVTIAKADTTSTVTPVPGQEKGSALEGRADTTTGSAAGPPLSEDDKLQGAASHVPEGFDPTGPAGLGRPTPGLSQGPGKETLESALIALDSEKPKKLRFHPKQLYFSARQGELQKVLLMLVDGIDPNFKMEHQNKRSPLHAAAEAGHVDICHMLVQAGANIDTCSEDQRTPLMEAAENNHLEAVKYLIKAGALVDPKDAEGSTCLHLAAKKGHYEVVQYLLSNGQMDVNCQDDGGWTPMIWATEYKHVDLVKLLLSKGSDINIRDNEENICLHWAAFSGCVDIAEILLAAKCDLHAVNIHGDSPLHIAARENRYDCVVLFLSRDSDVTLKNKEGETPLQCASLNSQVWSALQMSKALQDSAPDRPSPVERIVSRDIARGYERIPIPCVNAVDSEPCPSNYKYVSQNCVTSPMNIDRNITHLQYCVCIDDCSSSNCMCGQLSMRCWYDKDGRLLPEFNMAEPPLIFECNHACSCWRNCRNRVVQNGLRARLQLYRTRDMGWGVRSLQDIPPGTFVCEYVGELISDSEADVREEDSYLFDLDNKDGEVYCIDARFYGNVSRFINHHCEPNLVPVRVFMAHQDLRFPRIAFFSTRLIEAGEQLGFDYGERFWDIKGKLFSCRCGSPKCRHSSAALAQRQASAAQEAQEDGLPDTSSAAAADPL

B1: ORC5 (protein, UniProt O43913 1-435, looked up)
Origin recognition complex …: MPHLENVVLCRESQVSILQSLFGERHHFSFPSIFIYGHTASGKTYVTQTLLKTLELPHVFVNCVECFTLRLLLEQILNKLNHLSSSEDGCSTEITCETFNDFVRLFKQVTTAENLKDQTVYIVLDKAEYLRDMEANLLPGFLRLQELADRNVTVLFLSEIVWEKFRPNTGCFEPFVLYFPDYSIGNLQKILSHDHPPEYSADFYAAYINILLGVFYTVCRDLKELRHLAVLNFPKYCEPVVKGEASERDTRKLWRNIEPHLKKAMQTVYLREISSSQWEKLQKDDTDPGQLKGLSAHTHVELPYYSKFILIAAYLASYNPARTDKRFFLKHHGKIKKTNFLKKHEKTSNHLLGPKPFPLDRLLAILYSIVDSRVAPTANIFSQITSLVTLQLLTLVGHDDQLDGPKYKCTVSLDFIRAIARTVNFDIIKYLYDFL
B2: EEF1B2 (protein, UniProt P24534 2-225, looked up)
Elongation factor 1-beta: GFGDLKSPAGLQVLNDYLADKSYIEGYVPSQADVAVFEAVSSPPPADLCHALRWYNHIKSYEKEKASLPGVKKALGKYGPADVEDTTGSGATDSKDDDDIDLFGSDDEEESEEAKRLREERLAQYESKKAKKPALVAKSSILLDVKPWDDETDMAKLEECVRSIQADGLVWGSSKLVPVGYGIKKLQIQCVVEDDKVGTDMLEEQITAFEDYVQSMDVAAFNKI
B3: LANCL2 (protein, UniProt Q9NS86 2-450, looked up)
LanC-like protein 2: GETMSKRLKLHLGGEAEMEERAFVNPFPDYEAAAGALLASGAAEETGCVRPPATTDEPGLPFHQDGKIIHNFIRRIQTKIKDLLQQMEEGLKTADPHDCSAYTGWTGIALLYLQLYRVTCDQTYLLRSLDYVKRTLRNLNGRRVTFLCGDAGPLAVGAVIYHKLRSDCESQECVTKLLQLQRSVVCQESDLPDELLYGRAGYLYALLYLNTEIGPGTVCESAIKEVVNAIIESGKTLSREERKTERCPLLYQWHRKQYVGAAHGMAGIYYMLMQPAAKVDQETLTEMVKPSIDYVRHKKFRSGNYPSSLSNETDRLVHWCHGAPGVIHMLMQAYKVFKEEKYLKEAMECSDVIWQRGLLRKGYGICHGTAGNGYSFLSLYRLTQDKKYLYRACKFAEWCLDYGAHGCRIPDRPYSLFEGMAGAIHFLSDVLGPETSRFPAFELDSSKRD
B4: DUSP3 (protein, UniProt P51452 1-185, looked up)
Dual specificity protein …: MSGSFELSVQDLNDLLSDGSGCYSLPSQPCNEVTPRIYVGNASVAQDIPKLQKLGITHVLNAAEGRSFMHVNTNANFYKDSGITYLGIKANDTQEFNLSAYFERAADFIDQALAQKNGRVLVHCREGYSRSPTLVIAYLMMRQKMDVKSALSIVRQNREIGPNDGFLAQLCQLNDRLAKEGKLKP
B5: SERBP1 (protein, UniProt Q8NC51 2-408, looked up)
SERPINE1 mRNA-binding protein …: PGHLQEGFGCVVTNRFDQLFDDESDPFEVLKAAENKKKEAGGGGVGGPGAKSAAQAAAQTNSNAAGKQLRKESQKDRKNPLPPSVGVVDKKEETQPPVALKKEGIRRVGRRPDQQLQGEGKIIDRRPERRPPRERRFEKPLEEKGEGGEFSVDRPIIDRPIRGRGGLGRGRGGRGRGMGRGDGFDSRGKREFDRHSGSDRSSFSHYSGLKHEDKRGGSGSHNWGTVKDELTESPKYIQKQISYNYSDLDQSNVTEETPEGEEHHPVADTENKENEVEEVKEEGPKEMTLDEWKAIQNKDRAKVEFNIRKPNEGADGQWKKGFVLHKSKSEEAHAEDSVMDHHFRKPANDITSQLEINFGDLGRPGRGGRGGRGGRGRGGRPNRGSRTDKSSASAPDVDDPEAFPALA

Assays:
3×MBT domain of L3MBTL1 = experiment: Triple SILAC pull-down, 3xMBT/3xMBTD355N ratio (cytoplasmic, nuclear and chromatin fractions of 293T cells); assay type: binding, human; settings: SILAC ratio 3xMBT vs 3xMBTD355N pull-down, 293T cells, all values in log base 2; for 3xMBT/D355N UNC Heavy: experiment with UNC0638 in heavy SILAC media; for 3xMBT/D355N UNC Light: experiment with UNC0638 in light SILAC media;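 for all read-outs here: proteins quantified with MaxQuant, requiring at least two unique peptides and quantification in both label directions, normalized to the mean of proteins from a digested loading control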
G9a and GLP = target: T1, G9a and GLP; experiment: Triple SILAC pull-down after UNC0638 treatment of 293T cells, DMSO/UNC0638 ratio of protein captured by 3×MBT; assay type: cell-based; set-up: cells were treated for 24 hours with UNC0638 at 2.5 μM or DMSO vehicle control; endogenous in cells; host or cells: HEK 293T; settings: all values in log base 2; for Relative to UNC0638 UNC Heavy / Relative to UNC0638 UNC Light: SILAC ratio DMSO relative to UNC0638, pull-down with 3xMBT; for Relative to UNC0638 UNC Heavy: UNC0638 in heavy SILAC media; for Relative to UNC0638 UNC Light: UNC0638 in light SILAC media; for Relative to UNC0638 Average: average of UNC Light and UNC Heavy experiments;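 for all read-outs here: mass spectrometry (Q-Exactive) SILAC quantitation, DMSO/UNC0638 ratio computed after subtracting 3×MBTD355N mutant pull-down background, only proteins with at least twofold 3×MBT over mutant signal considered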

Molecule | 3xMBT/D355N UNC Heavy (3×MBT domain of L3MBTL1) [log base 2] | 3xMBT/D355N UNC Light (3×MBT domain of L3MBTL1) [log base 2] | Relative to UNC0638 UNC Heavy (G9a and GLP) [log base 2] | Relative to UNC0638 UNC Light (G9a and GLP) [log base 2] | Relative to UNC0638 Average (G9a and GLP) [log base 2]
B1 | 1.97 | 2.52 | −2.12 | 0.06 | −1.03
B2 | −0.81 | −0.32 | 0.01 | −0.64 | −0.31
B3 | 1.44 | 1.81 | −0.05 | −0.26 | −0.16
B4 | 1.97 | 1.19 | 0.47 | −1.35 | −0.44
B5 | −0.66 | −0.06 | −0.45 | – | −0.45
